According to patent US20250099634A1, “METHOD OF TREATING CANCER” (Novartis AG, priority 2023, published 2025):
Read-outs that look alike come from different tables or passages of the source.

Tests used:
OAT1 = OAT1 (Homo sapiens, UniProt Q4U2R8)
progressive GEP-NETs = settings: cited from earlier work
[1] = system: somatostatin receptor-positive tumors, including GEP-NETS; settings: 1,214 patients; cited from earlier work
[2] = target: P-glycoprotein (efflux transporter) (Homo sapiens, UniProt P08183)
BCRP = BCRP (Homo sapiens, UniProt Q9UNQ0); settings: not told
OCT2 = OCT2 (Homo sapiens, UniProt O15244)
OAT3 = OAT3 (Homo sapiens, UniProt Q8TCC7)
[3] = in vivo; cited from earlier work
OCT1 = OCT1 (Homo sapiens, UniProt O15245)
midgut carcinoid tumors = settings: NETTER-1, cited from earlier work
OATP1B3 = OATP1B3 (Homo sapiens, UniProt Q9NPD5)
serum inhibin B = settings: human, in vivo; cited from earlier work
OATP1B1 = OATP1B1 (Homo sapiens, UniProt Q9Y6L6)
[4] = All grades, randomized treatment period, Safety Set
[5] = Grade >=3, randomized treatment period, Safety Set
[6] = all grades, randomized treatment period
[7] = most frequent AEs, summary table

Chain of OATP1B3 (Q9NPD5 whole entry): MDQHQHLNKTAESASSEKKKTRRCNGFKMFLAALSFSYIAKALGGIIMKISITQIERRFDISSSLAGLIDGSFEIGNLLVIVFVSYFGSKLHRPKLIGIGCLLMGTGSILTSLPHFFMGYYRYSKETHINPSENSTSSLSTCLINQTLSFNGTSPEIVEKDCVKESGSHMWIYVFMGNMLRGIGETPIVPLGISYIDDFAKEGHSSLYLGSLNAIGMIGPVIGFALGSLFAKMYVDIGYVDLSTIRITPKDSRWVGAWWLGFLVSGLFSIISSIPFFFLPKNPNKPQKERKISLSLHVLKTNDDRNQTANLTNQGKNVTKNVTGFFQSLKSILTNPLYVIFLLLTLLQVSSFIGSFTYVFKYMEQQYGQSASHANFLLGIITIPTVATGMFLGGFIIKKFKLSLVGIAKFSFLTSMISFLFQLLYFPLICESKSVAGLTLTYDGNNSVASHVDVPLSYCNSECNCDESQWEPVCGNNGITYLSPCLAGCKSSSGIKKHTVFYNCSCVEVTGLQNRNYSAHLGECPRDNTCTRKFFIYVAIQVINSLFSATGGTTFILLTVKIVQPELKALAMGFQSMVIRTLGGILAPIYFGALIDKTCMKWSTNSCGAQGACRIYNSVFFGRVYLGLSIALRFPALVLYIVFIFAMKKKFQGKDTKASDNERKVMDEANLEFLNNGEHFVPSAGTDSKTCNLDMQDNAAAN
Chain of OATP1B1 (Q9Y6L6 whole entry): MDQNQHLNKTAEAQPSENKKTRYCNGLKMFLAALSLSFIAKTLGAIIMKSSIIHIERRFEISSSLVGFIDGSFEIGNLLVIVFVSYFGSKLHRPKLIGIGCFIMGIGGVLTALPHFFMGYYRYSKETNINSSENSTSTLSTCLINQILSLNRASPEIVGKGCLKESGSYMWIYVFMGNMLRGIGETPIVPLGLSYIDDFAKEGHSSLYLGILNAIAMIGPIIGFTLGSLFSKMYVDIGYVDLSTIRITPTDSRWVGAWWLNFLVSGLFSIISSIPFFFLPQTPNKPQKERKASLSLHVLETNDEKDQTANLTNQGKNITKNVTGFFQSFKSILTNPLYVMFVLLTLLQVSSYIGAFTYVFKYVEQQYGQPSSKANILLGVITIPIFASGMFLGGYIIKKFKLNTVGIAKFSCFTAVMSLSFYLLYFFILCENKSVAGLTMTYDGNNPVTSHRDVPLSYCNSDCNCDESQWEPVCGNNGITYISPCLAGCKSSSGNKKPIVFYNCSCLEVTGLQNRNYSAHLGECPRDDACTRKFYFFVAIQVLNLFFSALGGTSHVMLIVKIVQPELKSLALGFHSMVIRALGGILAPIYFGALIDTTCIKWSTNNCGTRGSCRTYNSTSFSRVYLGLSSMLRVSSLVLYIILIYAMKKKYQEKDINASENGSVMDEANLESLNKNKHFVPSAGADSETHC
Chain of OAT1 (Q4U2R8 whole entry): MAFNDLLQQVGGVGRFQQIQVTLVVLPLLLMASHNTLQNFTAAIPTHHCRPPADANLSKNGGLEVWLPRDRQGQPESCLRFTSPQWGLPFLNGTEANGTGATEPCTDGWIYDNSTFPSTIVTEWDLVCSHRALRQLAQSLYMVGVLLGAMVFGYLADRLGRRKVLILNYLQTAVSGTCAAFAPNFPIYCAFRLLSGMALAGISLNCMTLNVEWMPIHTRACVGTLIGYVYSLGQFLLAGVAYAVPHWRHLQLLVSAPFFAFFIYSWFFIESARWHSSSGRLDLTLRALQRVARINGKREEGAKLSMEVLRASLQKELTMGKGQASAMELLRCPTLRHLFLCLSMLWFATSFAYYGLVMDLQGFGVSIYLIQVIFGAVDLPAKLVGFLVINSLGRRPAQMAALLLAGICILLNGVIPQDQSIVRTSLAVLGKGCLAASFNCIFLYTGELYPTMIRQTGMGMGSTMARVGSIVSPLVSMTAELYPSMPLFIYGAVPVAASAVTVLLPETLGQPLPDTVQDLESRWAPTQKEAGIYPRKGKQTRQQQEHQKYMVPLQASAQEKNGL
Chain of OCT1 (O15245 whole entry): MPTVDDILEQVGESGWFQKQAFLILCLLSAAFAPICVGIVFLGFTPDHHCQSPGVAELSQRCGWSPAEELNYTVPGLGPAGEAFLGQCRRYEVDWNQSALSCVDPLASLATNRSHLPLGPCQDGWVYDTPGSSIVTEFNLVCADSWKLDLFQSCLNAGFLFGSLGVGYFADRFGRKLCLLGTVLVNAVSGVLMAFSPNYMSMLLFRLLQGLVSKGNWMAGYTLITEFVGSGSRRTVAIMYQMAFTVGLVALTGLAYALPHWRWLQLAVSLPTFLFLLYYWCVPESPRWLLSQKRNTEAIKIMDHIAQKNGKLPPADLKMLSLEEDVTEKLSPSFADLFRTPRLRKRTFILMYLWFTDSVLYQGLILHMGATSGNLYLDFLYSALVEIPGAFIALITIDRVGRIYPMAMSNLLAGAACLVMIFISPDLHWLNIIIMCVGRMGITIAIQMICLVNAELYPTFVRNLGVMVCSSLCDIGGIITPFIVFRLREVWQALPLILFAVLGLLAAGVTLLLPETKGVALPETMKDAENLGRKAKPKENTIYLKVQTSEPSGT
Chain of OAT3 (Q8TCC7 whole entry): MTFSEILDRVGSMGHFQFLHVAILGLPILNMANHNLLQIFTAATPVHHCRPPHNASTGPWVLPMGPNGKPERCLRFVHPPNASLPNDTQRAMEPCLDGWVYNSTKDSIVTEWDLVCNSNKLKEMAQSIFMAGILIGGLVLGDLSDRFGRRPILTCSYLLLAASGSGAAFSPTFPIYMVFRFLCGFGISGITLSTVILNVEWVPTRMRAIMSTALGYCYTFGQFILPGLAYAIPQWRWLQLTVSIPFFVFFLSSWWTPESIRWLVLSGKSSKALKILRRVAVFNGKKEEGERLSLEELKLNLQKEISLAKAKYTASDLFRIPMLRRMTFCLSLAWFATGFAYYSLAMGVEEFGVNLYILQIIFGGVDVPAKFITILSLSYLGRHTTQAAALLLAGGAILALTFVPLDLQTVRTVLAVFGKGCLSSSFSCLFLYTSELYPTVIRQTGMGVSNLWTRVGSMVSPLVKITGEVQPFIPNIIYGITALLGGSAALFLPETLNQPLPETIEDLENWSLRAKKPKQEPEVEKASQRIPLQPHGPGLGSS
Chain of P-glycoprotein (efflux transporter) (P08183 whole entry): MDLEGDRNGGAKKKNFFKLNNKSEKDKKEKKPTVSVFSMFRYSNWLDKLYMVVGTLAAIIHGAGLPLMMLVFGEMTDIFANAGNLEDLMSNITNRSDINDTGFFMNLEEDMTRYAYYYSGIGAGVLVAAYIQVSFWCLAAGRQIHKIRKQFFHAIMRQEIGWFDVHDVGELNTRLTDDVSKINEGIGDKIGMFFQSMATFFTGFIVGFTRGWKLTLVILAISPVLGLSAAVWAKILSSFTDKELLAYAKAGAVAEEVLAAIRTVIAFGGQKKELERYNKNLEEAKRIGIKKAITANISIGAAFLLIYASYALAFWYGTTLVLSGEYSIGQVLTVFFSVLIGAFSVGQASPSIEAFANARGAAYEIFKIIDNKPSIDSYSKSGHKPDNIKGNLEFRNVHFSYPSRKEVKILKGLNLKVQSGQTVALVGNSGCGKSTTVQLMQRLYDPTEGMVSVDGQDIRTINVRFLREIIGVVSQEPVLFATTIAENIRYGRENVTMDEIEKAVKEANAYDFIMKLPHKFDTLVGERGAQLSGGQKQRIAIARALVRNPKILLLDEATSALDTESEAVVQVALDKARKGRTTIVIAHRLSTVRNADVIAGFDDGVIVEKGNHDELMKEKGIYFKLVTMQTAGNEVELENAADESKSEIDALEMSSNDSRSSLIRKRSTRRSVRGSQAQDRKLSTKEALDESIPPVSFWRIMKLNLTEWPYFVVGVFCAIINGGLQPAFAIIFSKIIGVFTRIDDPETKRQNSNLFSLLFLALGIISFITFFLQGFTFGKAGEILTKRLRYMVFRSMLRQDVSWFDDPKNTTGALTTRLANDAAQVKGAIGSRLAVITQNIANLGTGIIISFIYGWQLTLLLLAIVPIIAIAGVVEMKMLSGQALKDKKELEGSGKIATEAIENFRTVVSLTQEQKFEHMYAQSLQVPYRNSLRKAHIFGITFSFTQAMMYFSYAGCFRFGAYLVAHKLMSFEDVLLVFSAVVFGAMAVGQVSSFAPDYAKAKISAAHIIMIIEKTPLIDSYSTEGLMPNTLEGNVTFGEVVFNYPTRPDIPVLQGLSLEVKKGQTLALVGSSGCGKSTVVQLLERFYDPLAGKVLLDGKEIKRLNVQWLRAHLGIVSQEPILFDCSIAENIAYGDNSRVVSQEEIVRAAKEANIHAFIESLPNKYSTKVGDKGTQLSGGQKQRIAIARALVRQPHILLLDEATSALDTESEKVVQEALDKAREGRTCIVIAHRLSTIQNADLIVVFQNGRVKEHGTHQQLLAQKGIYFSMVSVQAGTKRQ
Chain of BCRP (Q9UNQ0 whole entry): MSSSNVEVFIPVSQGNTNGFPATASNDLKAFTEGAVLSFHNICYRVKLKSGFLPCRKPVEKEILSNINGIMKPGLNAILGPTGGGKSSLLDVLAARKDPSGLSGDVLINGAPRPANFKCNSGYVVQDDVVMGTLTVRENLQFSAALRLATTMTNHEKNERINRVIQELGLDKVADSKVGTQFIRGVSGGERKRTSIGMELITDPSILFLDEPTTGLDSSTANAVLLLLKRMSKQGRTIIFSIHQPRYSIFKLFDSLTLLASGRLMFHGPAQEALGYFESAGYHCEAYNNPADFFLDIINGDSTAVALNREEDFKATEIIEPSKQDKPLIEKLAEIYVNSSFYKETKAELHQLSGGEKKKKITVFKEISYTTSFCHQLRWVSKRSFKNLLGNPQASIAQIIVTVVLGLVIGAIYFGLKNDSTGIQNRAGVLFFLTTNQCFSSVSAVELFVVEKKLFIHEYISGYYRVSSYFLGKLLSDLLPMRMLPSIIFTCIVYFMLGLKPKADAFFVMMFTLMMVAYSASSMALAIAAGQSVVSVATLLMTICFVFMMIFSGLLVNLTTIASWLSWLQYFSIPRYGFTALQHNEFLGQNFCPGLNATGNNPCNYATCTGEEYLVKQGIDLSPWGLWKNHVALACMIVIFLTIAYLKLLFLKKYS

SMILES: C[C@@H](O)[C@H](NC(=O)[C@@H]1CSSC[C@H](NC(=O)[C@@H](Cc2ccccc2)NC(=O)CN2CCN(CC(=O)[O-])CCN(CC(=O)[O-])CCN(CC(=O)[O-])CC2)C(=O)N[C@@H](Cc2ccc(O)cc2)C(=O)N[C@H](Cc2c[nH]c3ccccc23)C(=O)N[C@@H](CCCCN)C(=O)N[C@@H]([C@@H](C)O)C(=O)N1)C(=O)O.[177Lu+3] [Lutathera, ^177Lu-DOTA^0-Tyr^3-Octreotate]
- interaction with OAT1 (OAT1): absence of specific interaction
- AML and MDS (progressive GEP-NETs; in vivo): < 1%
- Hematologic grade 3/4 AEs (progressive GEP-NETs; in vivo): 9%
- median OS from the start of re-treatment (progressive GEP-NETs; re-treatment, available in 194 patients): 26.78 months
- DCR (progressive GEP-NETs; re-treatment, available in 347 patients): 71%
- median PFS (progressive GEP-NETs; re-treatment, available in 414 patients): 12.52 months
- AEs leading to discontinuation of Any Treatment (Lutathera, Octreotide) [4]: 7 (4.8) n (%)
- AEs leading to discontinuation of Lutathera [4]: 3 (2.0) n (%)
- AEs leading to discontinuation of Octreotide [4]: 5 (3.4) n (%)
- AEs leading to dose interruption of Any Treatment (Lutathera, Octreotide) [4]: 23 (15.6) n (%)
- AEs leading to dose interruption of Lutathera [4]: 14 (9.5) n (%)
- AEs leading to dose reduction of Any Treatment (Lutathera, Octreotide) [4]: 3 (2.0) n (%)
- AEs leading to dose reduction of Lutathera [4]: 2 (1.4) n (%)
- AEs leading to dose reduction of Octreotide [4]: 1 (0.7) n (%)
- AEs requiring additional therapy [4]: 109 (74.1) n (%)
- Adverse event: Abdominal pain [4]: 26 (17.7) n (%)
- Adverse event: Alanine aminotransferase increased [4]: 16 (10.9) n (%)
- Adverse event: Alopecia [4]: 22 (15.0) n (%)
- Adverse event: Anaemia [4]: 29 (19.7) n (%)
- Adverse event: Aspartate aminotransferase increased [4]: 16 (10.9) n (%)
- Adverse event: Asthenia [4]: 28 (19.0) n (%)
- Adverse event: COVID-19 [4]: 28 (19.0) n (%)
- Adverse event: Constipation [4]: 15 (10.2) n (%)
- Adverse event: Diarrhoea [4]: 38 (25.9) n (%)
- Adverse event: Fatigue [4]: 29 (19.7) n (%)
- Adverse event: Gamma-glutamyltransferase increased [4]: 12 (8.2) n (%)
- Adverse event: Headache [4]: 16 (10.9) n (%)
- Adverse event: Hyperglycaemia [4]: 20 (13.6) n (%)
- Adverse event: Lymphocyte count decreased [4]: 16 (10.9) n (%)
- Adverse event: Nausea [4]: 40 (27.2) n (%)
- Adverse event: Oedema peripheral [4]: 17 (11.6) n (%)
- Adverse event: Platelet count decreased [4]: 25 (17.0) n (%)
- Adverse event: Vomiting [4]: 21 (14.3) n (%)
- Adverse event: Weight increased [4]: 18 (12.2) n (%)
- Adverse events [4]: 136 (92.5) n (%)
- Adverse events Related to Amino Acids [4]: 22 (15.0) n (%)
- Adverse events Related to Any Treatment [4]: 101 (68.7) n (%)
- Adverse events Related to Lutathera [4]: 96 (65.3) n (%)
- Adverse events Related to Octreotide [4]: 55 (37.4) n (%)
- Adverse events: Number of subjects with at least one event [4]: 136 (92.5) n (%)
- AEs leading to discontinuation of Any Treatment (Lutathera, Octreotide) [5]: 4 (2.7) n (%)
- AEs leading to discontinuation of Lutathera [5]: 1 (0.7) n (%)
- AEs leading to discontinuation of Octreotide [5]: 3 (2.0) n (%)
- AEs leading to dose interruption of Any Treatment (Lutathera, Octreotide) [5]: 7 (4.8) n (%)
- AEs leading to dose interruption of Lutathera [5]: 3 (2.0) n (%)
- AEs leading to dose interruption of Octreotide [5]: 7 (4.8) n (%)
- AEs leading to dose reduction of Any Treatment (Lutathera, Octreotide) [5]: 1 (0.7) n (%)
- AEs leading to dose reduction of Lutathera [5]: 1 (0.7) n (%)
- AEs leading to dose reduction of Octreotide [5]: 0 n (%)
- AEs requiring additional therapy [5]: 28 (19.0) n (%)
- Adverse event: Abdominal pain [5]: 4 (2.7) n (%)
- Adverse event: Alanine aminotransferase increased [5]: 1 (0.7) n (%)
- Adverse event: Alopecia [5]: 0 n (%)
- Adverse event: Anaemia [5]: 1 (0.7) n (%)
- Adverse event: Aspartate aminotransferase increased [5]: 1 (0.7) n (%)
- Adverse event: Asthenia [5]: 1 (0.7) n (%)
- Adverse event: COVID-19 [5]: 0 n (%)
- Adverse event: Constipation [5]: 1 (0.7) n (%)
- Adverse event: Decreased appetite [5]: 0 n (%)
- Adverse event: Diarrhoea [5]: 2 (1.4) n (%)
- Adverse event: Fatigue [5]: 0 n (%)
- Adverse event: Gamma-glutamyltransferase increased [5]: 7 (4.8) n (%)
- Adverse event: Headache [5]: 0 n (%)
- Adverse event: Hyperglycaemia [5]: 0 n (%)
- Adverse event: Lymphocyte count decreased [5]: 8 (5.4) n (%)
- Adverse event: Nausea [5]: 1 (0.7) n (%)
- Adverse event: Oedema peripheral [5]: 0 n (%)
- Adverse event: Platelet count decreased [5]: 2 (1.4) n (%)
- Adverse event: Vomiting [5]: 1 (0.7) n (%)
- Adverse event: Weight increased [5]: 2 (1.4) n (%)
- Adverse event: White blood cell count decreased [5]: 3 (2.0) n (%)
- Adverse events [5]: 52 (35.4) n (%)
- Adverse events Related to Amino Acids [5]: 1 (0.7) n (%)
- Adverse events Related to Any Treatment [5]: 23 (15.6) n (%)
- Adverse events Related to Lutathera [5]: 22 (15.0) n (%)
- Adverse events Related to Octreotide [5]: 2 (1.4) n (%)
- Adverse events: Number of subjects with at least one event [5]: 52 (35.4) n (%)
- adverse event by preferred term: abdominal pain [6]: 17.7%
- adverse event by preferred term: diarrhoea [6]: 25.9%
- adverse event by preferred term: nausea [6]: 27.2%
- safety findings in NETTER-2 (consistent with established safety profile): No new or unexpected safety findings
- Incidence of AEs: Abdominal pain [7]: 26 (17.7) (%)
- Incidence of AEs: Diarrhoea [7]: 38 (25.9) (%)
- Incidence of AEs: Nausea [7]: 40 (27.2) (%)
- AEs leading to discontinuation of Lutathera (randomized treatment period): 2.0% vs. NA
- AEs leading to discontinuation of Lutathera and/or Octreotide (randomized treatment period): 4.8%
- AEs leading to discontinuation of Octreotide (randomized treatment period): 3.4%
- Any AEs (randomized treatment period): 92.5%
- Grade 3/4 AE: GGT increased (randomized treatment period): 4.8%
- Grade 3/4 AE: Lymphocyte count decreased (randomized treatment period): 5.4%
- Grade 3/4 AE: abdominal pain (randomized treatment period): 2.7%
- Grade 3/4 AE: small intestinal obstruction (randomized treatment period): 3.4%
- Grade ≥3 AEs (randomized treatment period): 35.4%
- Grade ≥3 AEs, Treatment-related (randomized treatment period): 15.6%
- Complete or partial tumor remission [1]: 39%
- interaction with P-glycoprotein [2]: absence of specific interaction
- interaction with BCRP (BCRP): absence of specific interaction
- interaction with OCT2 (OCT2): absence of specific interaction
- interaction with OAT3 (OAT3): absence of specific interaction
- delayed bone marrow toxicity [3]: 1.5 to 2%
- interaction with OCT1 (OCT1): absence of specific interaction
- risk reduction in likelihood of progression or death event (midgut carcinoid tumors; Lutathera versus 60 mg octreotide long-acting): 79%
- confirmed events (disease progressions RECIST 1.1 centrally assessed or deaths) (midgut carcinoid tumors): 21
- median PFS (midgut carcinoid tumors): not yet been reached
- interaction with OATP1B3 (OATP1B3): absence of specific interaction
- mean serum inhibin B levels (serum inhibin B): significant decrease
- inhibition or induction of human CYP450 enzymes (human CYP450 enzymes): absence of inhibition or significant induction
- interaction with OATP1B1 (OATP1B1): absence of specific interaction
